Here are results for 6 substances from US20260092097A1.

Assay [1] has as its target OVA peptide on H-2Kb (mouse). As to the kind of experiment: value cited from Alam et al. for the monovalent OT1 TCRα/β heterodimer on immobilised OVA peptide/H-2Kb; not measured in this filing; soluble, other.
Assay [2] concerns the target OVA peptide on H-2Kb (mouse). In words: SPR, BIAcore 2000; biotinylated peptide/H2-Kb/birA on a streptavidin chip; apparent affinity of the bivalent dimer; single-chain; fusion: hIL-15 with hIL-15RαSu/birA (OT1scTCR dimer). On the technique in general: SPR reads the build-up and loss of mass on a sensor chip optically.
Assay [3] concerns the target OVA peptide on H-2Kb (mouse). As to the kind of experiment: SPR; the murine single-chain CD8α/β domain of the complex binds the same peptide-MHC, so the value is not that of the TCR alone; single-chain; fusion: hIL-15, in complex with scCD8/hIL-15RαSu/birA (OT1scTCR/scCD8 heterodimer).
Assay [4] addresses OVA (aa257-264) peptide/H-2Kb complex (mouse) (UniProt P01901). As to the kind of experiment: SPR (BIAcore 2000), biotinylated pMHCI on streptavidin chip.
The target in assay [5] is anti-murine CD8α mAb.
Assay [6] deals with IL-15 receptor (IL-15RβγC) on 32Dβ cells (human; mouse) (UniProt P14784). In words: cell-based or functional assay.
Assay [7] has as its target anti-human IL-15 antibody. As to the kind of experiment: ELISA, anti-human IL-15 antibody as capture and as detection. (In general: An ELISA detects its analyte on a solid surface through an enzyme-linked reagent.)
Assay [8] has as its target anti-human IL-15 antibody. In words: ELISA, anti-human IL-15 antibody as capture and as detection; reference of the table.

Chain of IL-15 receptor (IL-15RβγC) on 32Dβ cells (human; mouse) (P14784 27-551, chain 1 of 2): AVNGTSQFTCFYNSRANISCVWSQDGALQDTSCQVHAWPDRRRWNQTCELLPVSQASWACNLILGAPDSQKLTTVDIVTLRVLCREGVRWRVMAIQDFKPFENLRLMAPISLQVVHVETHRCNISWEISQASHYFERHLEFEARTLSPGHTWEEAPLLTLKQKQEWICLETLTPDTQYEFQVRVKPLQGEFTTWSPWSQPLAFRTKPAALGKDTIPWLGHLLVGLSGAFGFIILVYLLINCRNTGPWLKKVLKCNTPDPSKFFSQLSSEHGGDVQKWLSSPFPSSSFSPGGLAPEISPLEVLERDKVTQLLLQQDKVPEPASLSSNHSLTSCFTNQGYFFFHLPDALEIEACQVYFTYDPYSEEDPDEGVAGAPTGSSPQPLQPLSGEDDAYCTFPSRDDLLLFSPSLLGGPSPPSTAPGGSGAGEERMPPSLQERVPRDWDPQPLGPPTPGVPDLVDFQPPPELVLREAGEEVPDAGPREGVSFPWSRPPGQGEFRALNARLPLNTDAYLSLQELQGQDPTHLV
Chain of IL-15 receptor (IL-15RβγC) on 32Dβ cells (human; mouse) (P34902 23-369, chain 2 of 2, further chain): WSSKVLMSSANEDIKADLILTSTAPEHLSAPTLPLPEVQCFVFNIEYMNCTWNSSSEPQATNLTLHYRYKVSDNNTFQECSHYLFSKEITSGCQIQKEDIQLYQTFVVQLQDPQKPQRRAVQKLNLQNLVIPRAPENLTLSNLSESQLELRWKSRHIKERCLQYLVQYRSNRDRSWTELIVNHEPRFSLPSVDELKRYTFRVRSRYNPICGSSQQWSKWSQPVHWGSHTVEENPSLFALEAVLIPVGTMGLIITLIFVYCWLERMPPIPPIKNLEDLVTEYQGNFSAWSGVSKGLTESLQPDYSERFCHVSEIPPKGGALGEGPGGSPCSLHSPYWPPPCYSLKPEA
Chain of OVA (aa257-264) peptide/H-2Kb complex (mouse) (P01901 22-305, one chain of several): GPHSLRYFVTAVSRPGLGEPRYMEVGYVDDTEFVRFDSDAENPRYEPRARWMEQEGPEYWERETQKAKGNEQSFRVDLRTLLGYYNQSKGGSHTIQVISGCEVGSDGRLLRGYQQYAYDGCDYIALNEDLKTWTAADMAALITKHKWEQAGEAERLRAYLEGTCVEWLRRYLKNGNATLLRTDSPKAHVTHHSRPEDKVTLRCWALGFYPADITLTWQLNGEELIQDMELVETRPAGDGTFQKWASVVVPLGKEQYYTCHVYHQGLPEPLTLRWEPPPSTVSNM

For OT1scTCR, the Kd stood at 6 µM in assay [1], 30 µM in assay [2] and 2600 nM in assay [3]. “OT1scTCR dimer: OT1scTCR/hIL-15:OT1scTCR/hIL-15RαSu/birA complex (from UniProt P40933 49-162; Q13261 31-95)” had a Kd in assay [4] of 30 µM. For the substance “OT1scTCR/scCD8 heterodimer: OT1scTCR/hIL-15:scCD8/hIL-15RαSu/birA complex (from UniProt P40933 49-162; P01731 28-196; P10300 22-175; Q13261 31-95)”, the EC50 (read off the curve) – broadly, the concentration needed to bring the measured effect to its halfway point – in assay [5] was determined as 500 pM. Besides, the Kd in assay [4] turned out to be 2.6 µM. Take “c264scTCR dimer: c264scTCR/hIL-15:c264scTCR/hIL-15RαSu/birA complex (from UniProt P40933 49-162; Q13261 31-95)”: the 32Dβ cell proliferation, half-maximal stimulation (EC50) in assay [6] turned out to be 300 pM. In assay [6], “c264scTCR/hIL-15 fusion protein (from UniProt P40933 49-162)” registered a 32Dβ cell proliferation, half-maximal stimulation (EC50) of 300 pM. In turn, c264scTCR/huIL15N72D fusion protein had a half-maximal effective concentration (EC50 (read off the curve)) in assay [7] of 200 pM. Also, the Relative activity (%) in assay [8] was found to be 100%.
